Article PMC1976250 (Journal of neurochemistry, 2007)

T1: GST-GluR2 C-terminus (GST-R2C) (UniProt P19491 834-883)
T1 chain (looked up): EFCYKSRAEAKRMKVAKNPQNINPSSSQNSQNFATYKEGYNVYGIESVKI

B1: his6β-SNAP (β soluble NSF attachment protein) (natural protein, UniProt P81126 1-298, looked up)
chain: MDNAGKEREAVQLMAEAEKRVKASHSFLRGLFGGNTRIEEACEMYTRAANMFKMAKNWSAAGNAFCQAAKLHMQLQSKHDSATSFVDAGNAYKKADPQEAINCLNAAIDIYTDMGRFTIAAKHHITIAEIYETELVDIEKAIAHYEQSADYYKGEESNSSANKCLLKVAAYAAQLEQYQKAIEIFEQIGANTMDNPLLKYSAKDYFFKAALCHFIVDELNAKLALEKYEEMFPAFTDSRECKLLKKLLEAHEEQNSEAYTEAVKEFDSISRLDQWLTTMLLRIKKSIQGDGEGDGDLK
B2: his6D142A NSF (enzyme, UniProt P18708 1-744, looked up)
chain: MAGRSMQAARCPTDELSLSNCAVVSEKDYQSGQHVIVRTSPNHKYIFTLRTHPSVVPGSVAFSLPQRKWAGLSIGQEIEVALYSFDKAKQCIGTMTIEIDFLQKKNIDSNPYDTDKMAAEFIQQFNNQAFSVGQQLVFSFNAKLFGLLVKDIEAMDPSILKGEPASGKRQKIEVGLVVGNSQVAFEKAENSSLNLIGKAKTKENRQSIINPDWNFEKMGIGGLDKEFSDIFRRAFASRVFPPEIVEQMGCKHVKGILLYGPPGCGKTLLARQIGKMLNAREPKVVNGPEILNKYVGESEANIRKLFADAEEEQRRLGANSGLHIIIFDEIDAICKQRGSMAGSTGVHDTVVNQLLSKIDGVEQLNNILVIGMTNRPDLIDEALLRPGRLEVKMEIGLPDEKGRLQILHIHTARMRGHQLLSADVDIKELAVETKNFSGAELEGLVRAAQSTAMNRHIKASTKVEVDMEKAESLQVTRGDFLASLENDIKPAFGTNQEDYASYIMNGIIKWGDPVTRVLDDGELLVQQTKNSDRTPLVSVLLEGPPHSGKTALAAKIAEESNFPFIKICSPDKMIGFSETAKCQAMKKIFDDAYKSQLSCVVVDDIERLLDYVPIGPRFSNLVLQALLVLLKKAPPQGRKLLIIGTTSRKDVLQEMEMLNAFSTTIHVPNIATGEQLLEALELLGNFKDKERTTIAQQVKGKKVWIGIKKLLMLIEMSLQMDPEYRVRKFLALLREEGASPLDFD

Tests used:
[1] = molecular target: GST-PICK1 (protein interacting with C-kinase 1) (UniProt Q9EP80 1-416); test: pull-down
Sequence of GST-PICK1 (protein interacting with C-kinase 1) (Q9EP80 whole entry): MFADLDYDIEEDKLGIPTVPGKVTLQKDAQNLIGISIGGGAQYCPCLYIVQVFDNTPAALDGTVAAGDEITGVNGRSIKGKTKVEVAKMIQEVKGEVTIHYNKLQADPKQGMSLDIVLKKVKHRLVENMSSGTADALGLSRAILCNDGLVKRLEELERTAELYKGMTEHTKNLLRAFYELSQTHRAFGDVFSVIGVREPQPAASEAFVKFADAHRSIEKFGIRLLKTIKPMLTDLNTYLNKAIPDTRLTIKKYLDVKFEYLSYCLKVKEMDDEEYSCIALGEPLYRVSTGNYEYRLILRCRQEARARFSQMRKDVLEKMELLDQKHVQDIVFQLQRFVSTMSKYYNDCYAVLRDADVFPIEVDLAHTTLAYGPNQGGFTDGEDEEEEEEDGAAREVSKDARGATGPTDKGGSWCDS

[2] = molecular target: T1, GST-GluR2 C-terminus (GST-R2C); test: pull-down

Binder	fold increase in binding at 15 μmol/L free Ca2+ compared with zero free Ca2+ [1] [fold]	binding at 15 μmol/L free Ca2+ relative to zero free Ca2+ [2] [%]
B1	~7	–
B2	–	85
